Values quoted from earlier work as cited in patent US20140303060A1, “PROCESS FOR DEGRADING A BIOFILM ON SURFACES OF OBJECTS” (Fraunhofer Gesellschaft Zur Foerderung der angwandten …, priority 2011, published 2014).

With “lysostaphin: zinc-dependent enzyme that cleaves the pentaglycine cross bridges of the bacterial cell wall” as the substance, how does the “effect of repeated freezing and thawing on activity” value read?
The value was “reduction of activity”.
